Assay results published in US20260167959A1, “APTAZYME-BASED REGULATABLE GENE EXPRESSION SYSTEMS” (REJUVENATE BIO INC, priority 2022, published 2026).
Substitutions are numbered along the chain they refer to.

B1: RA359 (nucleic acid)
DNA: GCGCGTCCTGGATAGAATACCAGCATCGTCTTGATGCCCTTGGAAGTCTTCGCGGAAACGCGTACATCCAGCTGACGAGTCCCAAATAGGACGAAACGCGC
modifications: expressed or natural sequence
B2: RA356 (nucleic acid)
DNA: GCGCGTCCTGGATTCGCGGAAACGCGTACATCCAGCTGACGAGTCCCAAATAGGACGAAAGAGAATACCAGCATCGTCTTGATGCCCTTGGAAGTCTCCGCGC
modifications: expressed or natural sequence
B3: RA351 (nucleic acid)
DNA: GCGCGTCCTGGATTCGCGGAAACGCGTACATCCAGCGAGAATACCAGCATCGTCTTGATGCCCTTGGAAGTCTCTGACGAGTCCCAAATAGGACGAAACGCGC
modifications: expressed or natural sequence
B4: RA354 (nucleic acid)
DNA: GCGCGTCCTGGATTCGCGGAAACGCGTACATCCAGCTGACGAGTCCCAAATAGGAGTGATACCAGCATCGTCTTGATGCCCTTGGCAGCACTACGAAACGCGC
modifications: expressed or natural sequence
B5: RA350 (nucleic acid)
DNA: GCGCAGAATACCAGCATCGTCTTGATGCCCTTGGAAGTCTGTCCTGGATTCGCGGAAACGCGTACATCCAGCTGACGAGTCCCAAATAGGACGAAACGCGC
modifications: expressed or natural sequence
B6: RA357 (nucleic acid)
DNA: GCGCGTCCTGGATTCGCGGAAACGCGTACATCCAGCTGACGAGTCCCAAATAGGACGGGAATACCAGCATCGTCTTGATGCCCTTGGAAGTCCAAACGCGC
modifications: expressed or natural sequence
B7: RA355 (nucleic acid)
DNA: GCGCGTCCTGGATTCGCGGAAACGCGTACATCGAGAATACCAGCATCGTCTTGATGCCCTTGGAAGTCTCCAGCTGACGAGTCCCAAATAGGACGAAACGCGC
modifications: expressed or natural sequence
B8: RA353 (nucleic acid)
DNA: GCGCGTCCTGGATTCGCGGAAACGCGTACATCCAGCTGACGAGTCCCAAATAGGACGAAACGCCGGAATACCAGCATCGTCTTGATGCCCTTGGAAGTCCGGCGC
modifications: expressed or natural sequence
B9: RA358 (nucleic acid)
DNA: GCGCGTCCTGGATTCGCGGAAACGCGTACATCCAGCTGACGAGCGGAATACCAGCATCGTCTTGATGCCCTTGGAAGTCCGTCCCAAATAGGACGAAACGCGC
modifications: expressed or natural sequence
B10: RA352 (nucleic acid)
DNA: GCGCGTCCTGGATTCGCGGAAACGCGTACATCCAGCTGACGAGTCCCAAATAGGACGAAACGCGCGAGAATACCAGCATCGTCTTGATGCCCTTGGAAGTCTCGC
modifications: expressed or natural sequence
B11: RA035 (nucleic acid)
DNA: B2 DNA with G61C, A62G, T97C, C98G
modifications: expressed or natural sequence
B12: RA034 (nucleic acid)
DNA: GCGCGTCCTGGATTCGCGGAAACGCGTACATCCAGCTGACGAGAGAATACCAGCATCGTCTTGATGCCCTTGGAAGTCTCGTCCCAAATAGGACGAAACGCGC
modifications: expressed or natural sequence

The molecules below were run on Renilla luciferase RNA (assay: Barcoded aptazyme variant library screen: un-cleaved Renilla luciferase RNA by barcode read counts, HEK293-T cells). Conditions: un-cleaved Renilla luciferase RNA by barcode read counts; with 1 mM theophylline (ON) over without theophylline (OFF); HEK293-T cells; triplicate.
Format: cell-based
Method in brief: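 Barcode sequencing of cDNA versus DNA, normalized per aptazyme, gave the un-cleaved Renilla luciferase RNA fraction and fold-change with versus without theophylline (triplicates). Library: T3H48 ribozyme with one of seven theophylline aptamer variants inserted at each position, placed in the Renilla 3′ UTR of a dual-luciferase vector.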

| Molecule | Fold change in RNA expression between the ON state and the OFF state |
| --- | --- |
| B1 | 0.8 |
| B2 | 0.8 |
| B3 | 0.9 |
| B4 | 0.9 |
| B5 | 0.9 |
| B6 | 0.8 |
| B7 | 0.9 |
| B8 | 0.9 |
| B9 | 0.8 |
| B10 | 0.9 |

Same assay, conditions: un-cleaved Renilla luciferase RNA, HEK293-T cells cultured with 1 mM theophylline (ON) over without theophylline (OFF); barcode read counts, triplicate

| Molecule | Fold change in RNA expression between the ON state and the OFF state [fold] |
| --- | --- |
| B11 | 2.2 |
| B12 | 2.3 |
